Data published in the supplement of paper PMC7877785.
± gives the uncertainty stated by the source.

Test: self-splicing fitness, log relative to wild type (ln ratio); higher = more splicing; Tetrahymena group I intron in knt gene, E. coli kanamycin selection, DiMSum; sequences stand for … in CUCUCU…GGAGGGAAAAGUUAUCAGGCAUGCACCUGGUAGCUAGUCUUUAAACCAAUAGAUUGCAUCGGUUUAAAAGGCAAGACCGUCAAAUUGCGGGAAAGGGGUCAACAGCCGUUCAGUACCAAGUCUCAGGGGAAACUUUGAGAUGGCCUUGCAAAGGGUAUGGUAAUAAGCUGACGGACAUGGUCCUAACCACGCAGCCAAGUCCUAAGUCAACAGAUCUUCUGUUGAUAUGGAUGCAGUUCACAGACUAAAUGUCGGUCGGGGAAGAUGUAUUCUUCUCAUAAGAUAUAGUCGGACCUCUCCUUAAUGGGAGCUAGCGGAUGAAGUGAUGCAACACUGGAGCCGCUGGGAACUAAUUUGUAUGCGAAAGUAUAUUGAUUAGUUUUGGAGUACUCGUGGUCG
Summary of the method: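 DiMSum derived fitness as the error-weighted combination of fold changes across replicates, kanamycin versus no kanamycin, normalised to wild type. E. coli BL21(DE3) held the library, which randomised all eight P1ex-region intron nucleotides within the knt kanamycin-resistance gene on pET-22b(+). Six replicate transformations grew overnight at 37°C or 30°C on LB agar with or without 25 μg/mL kanamycin, also containing 100 μg/mL carbenicillin, 50 μM IPTG and 0.2% rhamnose, and pooled colonies were amplicon-sequenced on an Illumina HiSeq 2500.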

| Sequence | self-splicing fitness (ln) (30 °C) | self-splicing fitness (ln) (37 °C) |
| --- | --- | --- |
| ACUAAGCAAUAUUACGCAAC | -3.28 ± 0.26 | -1.17 ± 0.27 |
| CUAGAGCAAUAUUACGCAAU | -3.77 ± 0.22 | -3.08 ± 0.34 |
| GUCGAGCAAUAUUACGGCCA | -1.28 ± 0.36 | -0.721 ± 0.27 |
| ACCCAGCAAUAUUACGGUAU | -0.563 ± 0.047 | -0.154 ± 0.068 |
| CCAUAGCAAUAUUACGCUGU | -4.23 ± 0.39 | -2.54 ± 0.29 |
| AGAAAGCAAUAUUACGUACU | -0.412 ± 0.096 | 0.261 ± 0.11 |
| AAGCAGCAAUAUUACGAGAG | -4.01 ± 0.29 | -2.49 ± 0.25 |
| CCCAAGCAAUAUUACGAUAA | -3.19 ± 0.14 | -3.49 ± 0.2 |
| UGCCAGCAAUAUUACGUAGG | -3.34 ± 0.25 | -0.145 ± 0.17 |
| AAGUAGCAAUAUUACGACAG | -2.86 ± 0.18 | -1.66 ± 0.21 |
| AAUUAGCAAUAUUACGCUGC |  | -2.79 ± 0.4 |
| AAGCAGCAAUAUUACGAACG | -2.31 ± 0.094 | -0.98 ± 0.11 |
| CUUAAGCAAUAUUACGCAGA | -3.41 ± 0.36 | -1.93 ± 0.24 |
| UCAUAGCAAUAUUACGGUUU | -3.72 ± 0.28 | -1.92 ± 0.22 |
| AGUAAGCAAUAUUACGCUCC | -3.21 ± 0.28 | -1.18 ± 0.2 |
| GGGAAGCAAUAUUACGCCCA | -0.527 ± 0.15 | -0.717 ± 0.21 |
| CCCAAGCAAUAUUACGCUCG | -3.17 ± 0.2 | -2.14 ± 0.33 |
| ACUAAGCAAUAUUACGCGGG | -2.3 ± 0.18 | -1.36 ± 0.15 |
| GCUGAGCAAUAUUACGACAU | -2.265 ± 0.018 | -1.08 ± 0.035 |
| AAAUAGCAAUAUUACGGACU | 0.0218 ± 0.068 | 0.206 ± 0.091 |

| Sequence | self-splicing fitness (ln) (30 °C) | self-splicing fitness (ln) (37 °C) |
| --- | --- | --- |
| UAGUAGCAAUAUUACGCCUC |  | -1.66 ± 0.31 |
| GUCCAGCAAUAUUACGCGGA | -3.96 ± 0.25 | -4.4 ± 0.46 |
| ACUUAGCAAUAUUACGGAGG | -2.19 ± 0.13 | -1.48 ± 0.16 |
| GAGAAGCAAUAUUACGGGGC | -3.04 ± 0.19 | -3.05 ± 0.23 |
| AUAAAGCAAUAUUACGUGGC | -3.27 ± 0.13 | -2.69 ± 0.16 |
| GAUUAGCAAUAUUACGAUAC | -1.24 ± 0.19 | -0.415 ± 0.18 |
| GUCAAGCAAUAUUACGCCGA | -3.33 ± 0.45 | -1.08 ± 0.18 |
| AUGAAGCAAUAUUACGUUUU | -2.36 ± 0.12 | -1.7 ± 0.15 |
| CUCCAGCAAUAUUACGUCAC | -3.88 ± 0.26 | -2.69 ± 0.29 |
| GCUGAGCAAUAUUACGUUAG | -2.86 ± 0.12 | -1.74 ± 0.17 |
| CAUCAGCAAUAUUACGUAUA | -1.68 ± 0.095 | -0.354 ± 0.11 |
| ACGCAGCAAUAUUACGCCCG | -0.491 ± 0.13 | -0.64 ± 0.19 |
| GCGCAGCAAUAUUACGUGCC | -3.26 ± 0.18 | -2.75 ± 0.29 |
| UUAAAGCAAUAUUACGGCCU | -0.459 ± 0.12 | 0.567 ± 0.16 |
| AACAAGCAAUAUUACGGAUC | -1.6 ± 0.093 | -0.302 ± 0.11 |
| AGCGAGCAAUAUUACGCAUU | -2.63 ± 0.24 | -2.04 ± 0.2 |
| AUAGAGCAAUAUUACGACCG | -2.9 ± 0.27 | -1.57 ± 0.43 |
| CGUUAGCAAUAUUACGCAUA |  | -1.37 ± 0.23 |
| ACAGAGCAAUAUUACGAGAG |  | -2.6 ± 0.28 |
